Experimental data: patent US20230174619A1 (published 2023)
Where a chain is given by its changes, count along the chain named. Names may count otherwise.

T1: murine PD-1-Fc (murine, UniProt Q02242 25-167)
T1 construct: Surface-immobilized in the BLI assay; It differs from the selection antigen (murine PD-1 31-150, C83S, AviTag); also called murine PD-iFc; not shown: Fc portion
T1 sequence (looked up): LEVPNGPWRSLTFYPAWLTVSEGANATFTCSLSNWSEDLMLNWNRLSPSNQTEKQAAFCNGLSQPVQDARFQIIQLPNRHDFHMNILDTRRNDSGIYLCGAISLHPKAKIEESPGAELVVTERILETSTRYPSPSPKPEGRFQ

B1: PD-L1 wt, distal Ig-like domain of murine PD-L1 (amino acids 18-132) with C113R, His-tag fusion expressed in E. coli (ligand)
chain: AFTITAPKDLYVVEYGSNVTMECRFPVERELDLLALVVYWEKEDEQVIQFVAGEEDLKPQHSNFRGRASLPKDQLLKGNAALQITDVKLQDAGVYRCIISYGGADYKRITLKVNA
notes: also called unmodified PD-L1 wt; wt PD-L1; not shown: His-tag
B2: PD-L1 wt Fc fusion protein (Ig-like V-type domain of PD-L1 fused to human Fc), expressed in Expi293F (Fc fusion)
chain: B1 chain
notes: also called wt (200); wt protein; not shown: linker/hinge and human Fc
B3: PD-L1 variant 214, distal Ig-like domain of murine PD-L1 (amino acids 18-132), His-tag fusion expressed in E. coli (ligand)
chain: B1 chain with V37L, Y39D, Q49R, V51E, A52S, P59H
notes: not shown: His-tag
B4: PD-L1 variant 258, distal Ig-like domain of murine PD-L1 (amino acids 18-132), His-tag fusion expressed in E. coli (ligand)
chain: B1 chain with Y39S, P59F, I98L
notes: not shown: His-tag
B5: PD-L1 variant 214 Fc fusion protein (Ig-like V-type domain fused to human Fc), expressed in Expi293F (Fc fusion)
chain: B1 chain with V37L, Y39D, Q49R, V51E, A52S, P59H
notes: not shown: linker/hinge and human Fc
B6: PD-L1 variant 258 Fc fusion protein (Ig-like V-type domain fused to human Fc), expressed in Expi293F (Fc fusion)
chain: B1 chain with Y39S, P59F, I98L
notes: as for B5

Assays:
murine PD-1-Fc [1] = molecular target: T1, murine PD-1-Fc; assay: bio-layer interferometry (Octet), murine PD-1-Fc surface-immobilized, His-tagged PD-L1 domain
Protocol: Amino acids are indicated and shown as sticks. (B) Structural alignment indicates an identical structural conformation. (C)-(E) Representative bio-layer interferometry sensograms for PD-L1 wt (C) and two indicated engineered PD-L1 variants (D, E). Raw data (thick lines) was fitted using 1:1 langmuir interaction model (thin lines).
(§1) Phage selections were performed using as an antigen recombinant murine PD-1 protein (amino acids 31-150) with C83S substitution fused to AviTag peptide, biotinylated in vivo and purified from E. coli. After a couple of selection rounds, binding of enriched phage clones were analyzed by ELISA and the selected PD-L1 variants were sequenced. In a competitive phage IC₅₀ ELISA, the 5 PD-L1 variants were examined for their binding properties by competing with 500 nM or 50 nM in solution with PD-1-Fc (FIG. 1).
Amino acid positions 54, 56, 63, 66, 68, 69, 76, 113, 115, and 121-125 were randomized. For the selected variants, dashes represent no amino acid change relative to the wild type sequence. Kd values for the interaction of the variants and murine PD-1 were obtained by bio-layer interferometry; n/a—not available. Table 2 indicates R113 because the original C113 of the murine sequence was substituted already prior to library construction, as indicated above.

murine PD-1-Fc [2] = molecular target: T1, murine PD-1-Fc; assay: bio-layer interferometry 'in similar experiments', dimeric Fc fusion (avidity)
Protocol: as §1
(§2) After expression and purification of the Fc fusion proteins, we obtained with one step purification on a protein A column, good purity and an average yield of 200 mg/L Expi293F culture (FIG. 4). In order to verify whether the purified protein is still binding the PD-1, we determined PD-1/PD-L1 affinities as before.

murine PD-1-Fc [3] = molecular target: T1, murine PD-1-Fc; assay: bio-layer interferometry (Octet), murine PD-1-Fc surface-immobilized; reference PD-L1 wt in the same format
murine PD-1-Fc [4] = molecular target: T1, murine PD-1-Fc; assay: bio-layer interferometry, monomeric variant 258 as retold in the text (Table 1 prints 2.17)
murine PD-1-Fc [5] = molecular target: T1, murine PD-1-Fc; assay: bio-layer interferometry 'as before', dimeric Fc fusion (avidity)
Protocol: as §1, §2

murine PD-1-Fc [6] = molecular target: T1, murine PD-1-Fc; assay: bio-layer interferometry, Fc fusions; reference wt Fc fusion

Binder	Kd (murine PD-1-Fc [1]) [nM]	fold advantage in binding compared to PD-L1 wt (murine PD-1-Fc [3]) [fold]	Kd (murine PD-1-Fc [5]) [nM]	fold improved affinity against the wt Fc fusion (murine PD-1-Fc [6]) [fold]	other results
B1	66				
B2					Kd (murine PD-1-Fc [2]): ~0.6 nM
B3	2.54	≤ 30			
B4	2.17	≤ 30			Kd (murine PD-1-Fc [4]): 2.14 nM
B5			0.088	≤ 8	
B6			0.077	≤ 8	
